Results from patent publication US6656716 (SUGEN, dated 2003).

Target: T1, SULU1-coiled-coil2 (GST fusion of human SULU1 amino acids 752-898) (human, UniProt Q5R4F3 752-898 (Pongo abelii entry))
T1 construct: Bait made as a C-terminal fusion to GST, expressed in E. coli and immobilised for T7 phage display selection; also called Construct 1; SULU1 Coiled-coil2 bait; not shown: glutathione S-transferase (GST) of the pGEX-4T vector
T1 sequence: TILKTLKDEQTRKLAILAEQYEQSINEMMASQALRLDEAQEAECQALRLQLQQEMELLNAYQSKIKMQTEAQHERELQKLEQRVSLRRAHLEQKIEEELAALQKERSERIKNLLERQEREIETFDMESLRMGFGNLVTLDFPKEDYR
Experiment: T7 phage display, H441 cDNA library, immobilised GST-fusion bait
Protocol: Aliquots of refreshed libraries (10^10–10^12 pfu) supplemented with PanMix and a cocktail of […] inhibitors (Sigma P-8465) were incubated for 1–2 hrs at room temperature with the immobilized baits. Unbound phage was extensively washed (at least 4 times) with wash buffer.
Individual plaques were picked into 25 µL of 10 mM EDTA and the phage was disrupted by heating at 70° C. for 10 min. 2 µL of the disrupted phage were added to 50 µL PCR reaction mix. The insert DNA was amplified by 35 rounds of thermal cycling (94° C., 50 sec; 50° C., 1 min; 72° C., 1 min).

B1: GEK2 coiled-coil domain fragment (residues 677-820 of SEQ ID NO:26) displayed on T7 phage (other)
chain: KESMKQKMEEHTQKKQLLDRDFVAKQKEDLELAMKRLTTDNRREICDKERECLMKKQELLRDREAALWEMEEHQLQERHQLVKQQLKDQYFLQRHELLRKHEKEREQMQRYNQRMIEQLKVRQQQEKARLPKIQRSEGKTRMAM
notes: also called GEK2 CC1; GEK2 cc dom; not shown: T7 phage coat protein of the T7Select1-1b vector
  binding result: binds
